# What was measured:
# [1] = tested on: Cytochrome p450 1A1 (CYP1A1); experiment: Aryl hydrocarbon hydroxylase (AHH) assay; conditions: cells treated with 9 μM BaP
# Experimental: • 1.1 Cell lines and culture. Two HCC cell lines-Huh 7 (13) and HA22TNGH (14)—and one human hepatoblastoma cell line-Hep G2 (15)—were used in this study. Cells were cultured in Dulbecco's modified Eagle's medium (DMEM, GIBCO BRL, Grand Island, N.Y.) with 10% heat-inactivated fetal bovine serum (HyClone, Logan, Utah), penicillin (100 IU/ml), streptomycin (100 μg/ml), nonessential amino acids (0.1 mM), fungizone ([…]) and L-glutamine (2 mM) in a humidified incubator with 5% CO2. • 1.2 Construction of pGNMT, pGNMT-antisense and pGNMT-His-short plasmids. To construct plasmid-pGNMT containing the CMV promoter and GNMT cDNA fragment, we used plasmid-pFLAG-CMV-5 (Kodak, Rochester, N.Y.) as a vector and the pBluescript-GNMT-9-1-2 phagemid (8) as the PCR template for generating the insert. A 0.9 kb DNA fragment containing the GNMT cDNA sequence and restriction enzyme sites on both ends was amplified. All PCR conditions were as recommended by the manufacturer (Perkin Elmer, Norwalk, Conn.) with two exceptions: 2 mM of MgCl2 and 150 nM of primer. Twenty amplification cycles were performed using Perkin Elmer's Amplitaq Gold Taq DNA polymerase with DNA Thermal Cycler. […] RP concentration was measured with a BCA protein assay (Pierce, Rockford, Ill.); purity was tested by running samples on a 12.5% SDS-polyacrylamide mini-gel (Bio-Rad Laboratories, Richmond, Calif.). • 1.4 Transfection. […]
# lung tumors = type: in vivo; conditions: GNMT-overexpressing transgenic mice, 375 μg B(a)P/7g body weight everyday IP for 15 days, sacrificed 78 weeks after the challenge
# Experimental: • 1.1 pPEPCKex-flGNMT Plasmid Construction: pPEPCKex-flGNMT plasmid was prepared by using a pPEPCKex vector (concluding with phosphoenolpyruvate carboxykinase promoter (PEPCK, Valera et al., 1994), specific expressed in liver and kidney) and pSK-flGNMT (concluding with full length human GNMT cDNA) plasmid. Both plasmids were digested with Not I and Xho I. Insert was ligated to the vector and transformation into the competent cell (JM109). The clones were selected with ampicillin and screened with PCR to check pPEPCKex-flGNMT plasmid (FIG. 1). • 1.2 Production of Transgenic Mice: pPEPCKex-flGNMT plasmid was amplified and digested with Asc I to linear form (4.3 Kb). The linear form pPEPCKex-flGNMT gene was sent into FVB stain mice 0.5 days embryo by pronuclei microinjection. The embryos were sent into the foster mother (ICR strain mice). After 18-21 days, the mice were bred and screened with PCR to check the transgenic mice. • 1.3 Expression human GNMT in liver and kidney of transgenic mice: To check the PEPCK promoter specific expression organ, we used northern blot (FIG. 2) and western blot (FIG. 3). The human GNMT was specific expression in liver and kidney. […]
# CYP1A1 gene = conditions: following BaP treatment; preliminary data
substance,measurement,setting,value
"GNMT: Glycine N-methyltransferase (EC2.1.1.20), SEQ ID No: 1, SAM-dependent methyltransferase binding benzo(a)pyrene",reduction in CYP1A1 enzyme activity in GNMT-expressing cells (SCG2-1-1) compared to SCG2-neg cells,[1],45%
same,mice that generated lung tumors,lung tumors,30%
same,reduction of CYP1A1 gene expression in SCG2-1-1 cells compared to Hep G2 cells,CYP1A1 gene,approximately 20%

# — patent publication US20090232787A1, “CARCINOGEN DETOXIFICATION COMPOSITION AND METHOD” (Gene Research Lab. Co., Ltd., priority 2004, published 2009)
